Assay: label from the status in PepcDB records

Sequence | protein production
PKRTAATAGALMIGVAVVSLFTVFGASLKATMDQTVSRSFAGDVAVSAPSFGAGGSGLSPRLAGAIQELPEVDTAVGLGRGVAEVDGQGRALTVTDPAALNRTFDLGAVHGSLDDLGTDGIAITENEADERGLTTGDTTRLTFTDGHSGTFTVRAVYGQSELAGDYVITRAAWAPHRTQDSDTLVAVAFEDGVGADAGKAAVEKVADRYGNPEVQTREEYAESSAGGIDMMLTLVYALLALAVLIALLGISNTLTLAVHERTRELGLLRAVGQTRAQLRAMVRWESVLVAAFGTVGGLGLGAFLGWVLVAASDGASDSAFAFAVPPAQLAVVALVGLAAGALAGVRPARRASRLDVLRAVAT | failed
VPRIAEVRDAAEPSSEEQRARHVRMLEAAIELATEKELARVQMHEVAKRAGVAIGTLYRYFPSKTHLFVAVMVDQIDRMGVGFKKSAPPGESPQDAVYNVLVRATRGLLRRPALSTAMIQSTSTANVASVPDAGKVDRAFRQIMLDAAGIEHPTEEDLTALRLLVQLWFGVIQSCLNGRVSIPDAESDIRRACDLLLVNLSHR | not failed
MKLIASNKKAYFDYEILETLEAGLALLGSEVKALRQTRVNLKDNFVKIIKGEAFLFGVHISYLDTIHAYYKPNERRERKLLLHKKQLLKWQIEASKERLSIVGLKLYFNQRNRAKIQIALVKGKRLHDKRQSLKEKALNKEILADLKHHFKG | failed
ILARTKIFPWFFDLKRNKMLIDAHWFSYLGIPAGDCEITIEKFFSRVHPNERDMLADALQKQLSEKEIPDSFSYRLQRGDGSWEWFSEQSMYLSKTNDGSPYRIVGVCHSIQEHKNT | failed
MEEPLRQESPTTFHAKTSDRGQIDLGISKHKTVAEAWEGYRQRRHRSTHLQAIETALLQQRNDRTEDEDIVLWKGKNDVYKPQFLTKETLNHMRTISMDVDWYKGVWFGHSTPKYSFCVWLAVLNRLSTGDRMTHWNGGQSAACVLCHNAPETRDHLFFSCDFASIVWSNLARGIYGDRFSTHWQDLIQAISGSWMTPLDSFFARYLFQATVHTIWRERNGRNHGEKPNSAALLIK | failed
MSKFDGYFLRQLLVLCGFFAFVLVGVFWISKAVSLFDRLISSGQTAMVALEFTALTLPTLVRTVMPMAAFCATVYVTNRLNRESEMTVMLATGSSPFRLARPVILFGLVCAAMLATITLYLRPAAMLRLEARQAEVAGDMTAQLLNDGQFMHPVKGVTVYIGKIDRDGTLNDVYLSDRRAPERVVTYTSSKAFLARSGEQIALVMVEGTALQMETGRRTLSTTVFRDFSYDISALAKRDIERRQDIRGMPTLALATAFDGEGLAETYSRGEISEELQERLSWIGVSVAVTLIGFSTLMLGTFSRFGLWPQLIAAFAGLIALEGMRSTATAFVGSHPGLWWVQHAPALGGIALSILFLKLAGRPLRLRRYPDTGSV | failed
MTVTLKNDYLTVQINEKGAELSSVKANDGIEYIWQADPAVWGRHAPVLFPFVGRLKDDQFQVEDQTYPMGQHGFARDMDFEAVEQDDQHVIMELNSDTETLQKFPFEFKLRLHFTLKDHELIEHYEVVNPDSKKDLLFSIGGHPGFNLNLGDNQIQMEDTHIRIAPKQVYNQIPLKAPYTDPKNPIKFDATTPLDLTHALFKDDAIILDLKGEQITLMTENEVNNHGIAFTVANAPYLGIWSPYPATANFVCLEPWWGIADTVNFNGELKDKLGVNRLAAQETFNQEFSMSFF | failed
MFAMLHVIVDTNWLLLAFSALMFDLPRYTFSLLSWSLVGIFRNSRPGDRWVEAAVSVIIPTFNGGSGLAPTIASLRQQTLSPLEIIIVDDGSTDDTRAVANRARQDGLVDMVICHGTRCGRSAAINAAARFASGDLIFTIDADTVLERDAIARLAHAFNDPRVAGACGNIAIRNESASLWTGLQSVEYMMSISAGKSILDVVGAIACLSGACSMYRRDVFARQGGLDVGPGEDLEFSLRLRRLGYRVRFVPDAWAETDGPVAAVGLLRQRARWDRDALRIRSMMYGELSFFHPLERLPDTLQRLDFIVFDLIPTMSLPFYSMYIVILFGPAHAILFIGAIYFLLLWISLFNMALAFVLFSRSPSFFSLGAAFIFPFYQGIYMKCARFVSYSSEILFATSRRDDYVPPRVRRALFADEVGKVVS | failed
MDALLGPPESSWEGADRSDADLRWARGGREARDRRDQLLPALHALNDRVGWISEGALDYVCRRLTVPPAEAYGVATFYAMFSVRPRPATVLHVCTDLACTAAGASRLCAAVESRLGPESGVKLERSPCLGLCERAPATLVIRAGESARPAQEDTPARPAFEDEAVQAEGGSGGAAPGDGGGTSRSSEAESGGGKGRRGRNTLHATAICAPATPDRAIAAATAPESAPTEPAPEAAVPQAGDPTLTLLHRIGTTDPTSLDDYRAHGGYTALRRAFALGPAAVIREVTDAGLVGRGGAAFPTGRKWQATAAQPDHPHYLVCNADESEPGTFKDRVLMEGDPYALVEAMTIAAYATGAHRGYLYLRGEYPRALARLTHAIEQARTRGLLGDDVLGQGYAFDIEIRRGAGAYICGEETALFNSIEGRRGEPRSKPPFPVEKGLFGKPTVENNVETLVNVLPILTMGAEAYAAIGTPTSTGPKLFCVSGTVARPGVYELPFGATLGELLALAGVRDNLRAVLLGGAAGGFVRPDELDIPLTFEGTREAGTTLGSGVVMAFDDTVPLPRLLLRIAEFFRDESCGQCVPCRVGTVRQEEALHRIADRTGAAAADDIALLREVGRAMRDASICGLGQTAWNAVESAIDRLGAYE | failed
MNLEKHASPDSVIVIDDLLPQHMDYASRQRNTTIWTGDVYRLVPILRHYRPDLDIRVYDVDMKGFGLVTRLDPSSDVLAGNYGAIEADILAGKWSFPTAAAIRDHMQPRATDLLANDLGIIAARRTAKASKQSDRRAAPALPQRRPRLSVIICAYDMAREAPRTILSATAPYQKGLKEDEYEVIVVDNGSSTPLTYDNLPPNAQIVRAPDPRQSPVFALNWAAREIAKGEILLFAIDGARIFSERLIDETVKAHDRMEDAFVFSLSWHIGPKVQMQSVPEGYGAEIEDGLIRAVRWPDESDGLFGISVLAGSSSNGFFGDITESNSFSISRTLFDRHGGFDERFTSPGGGLANLEIFRRYVTRPDARNVCLLSEGTFHQVHDSVATSGKNRWEAFASEYEAIFGGPYLRPSYHCFYQGKPRAGMVPFILQSLQG | failed
MAVRFFHTSDWHLGQFFYNHSRHYEHEQFLAWLLKQIKAKQPHALLIAGDIFDVINPSSQAQKQLYQFLADAHALAPHMQTLMIAGNHDSGYRIEQVEPLLEKYNARTVGVIRWNEDKTLNLERLILPVYDENKNVVAWCIALPFLRSAEITGFNEHTNNSQSAIAYLHEQLISEAKRRKTDDQAIILMSHAHMQGGETSDSERPIIIGNEEALSTALFDDAIDYVALGHLHKPQKVQHPHIRYSGSPIPLSFSEINYKHQVVDVNIDPTQSTDKFQFEAIEIPRSIKLHKIRGELNEVIQQLKSLAQGEIESIDLREYIDIEYHTLTPPLPNLRQQFEDALPPKRYRLVRISRQYLSQDNNAAQASKINLEPPTPEKLFEQIWDKKGYHADDDVKKDFMSLVAQAQQQLEDQHKY | failed
MGHHHHHHSHMGRCYNNIVIDASIEAVWQQIGNFHDMSWAKGVITSLVKVGPASGTEVGAKRILNDAIHETLVSLDSSNYTFTYSIDDGPDAIAKSAVDNYLGMVNLSESSTGVLVEWSSSFTSDNEKAVTEFCDP | failed
MLSYPGELQGCRVILYLVGHHLYLIPTTISMCGCPEEGAYMRRLWGYISIITATIFFGISATLDKIMLSSMHPVTIGAYTYIIAGIFLFFIRETPLREHVLNAINRKGESEARIKRNDYLILLLTALLSTVIAPLLFLTGLGDTTAVNASLILNVEVLFIILLGYLIFRETLQLKDFLGIVLIILGAVYLLTEGDFSTILRNVAVTGNFLVMAAAFFWSLDTVLSKFLSRKRDLIFISGVKSSVGGFVLLIIMLILGINTELPLEMLPYALGVSVFSIGCSFILIYIAIREIGASMVGALFPLSSLFGAIFAFIILREPFSIMQGISGIVMLTGVFILYWNGK | failed
MGRKDSLDLEEEAASGASSALEAGGSSGLEDVLPLLQQADELHRGDEQGKREGFQLLLNNKLVYGSRQDFLWRLARAYSDMCELTEEVSEKKSYALDGKEEAEAALEKGDESADCHLWYAVLCGQLAEHESIQRRIQSGFSFKEHVDKAIALQPENPMAHFLLGRWCYQVSHLSWLEKKTATALLESPLSATVEDALQSFLKAEELQPGFSKAGRVYISKCYRELGKNSEARWWMKLALELPDVTK | failed
MNFGEAVSSFFRNYVNFSGRASRSEFWYSYLFIIIVGVILVIVDTIVKNEIISSIWNLAALLPTLAMTTRRLHDINRSGWHQLLAWFIPVGSIALIIWYCKKSDDTVTLSEIERVFR | failed
AVSGLYSSSDDVIELTPSNFNREVIQSDGLWLVEFYAPWCGHCQRLTPEWKKAATALKDVVKVGAVNADKHQSLGGQYGVQGFPTIKIFGANKNKPEDYQGGRTGEAIVDAALSALR | not failed
MQTPKSRPGSLELPQKKSPLPAPKVVRRLKPSGAESDPKTKTISKTQIPKVVADRRSARIPLNEKKRTGRIPELESTISQLQEELKKAKEELNRSEALKREAQEEAEDAKHQLMDINASEDSRIEELRKLSQERDKTWQSELEAMQRQHGMDSTALSSAINEVQKLKSKLFESESELEQSKYEVRSLEKLVRQLEEERVNSRDSSSSMEVEELKEAMNLSRQEITQLKSAVEAAETRYQEEYIQSTLQIRSAYEQTEAVKSRYSQREAELTEELNRTKDEIEGLRKELMEKVKEDESTGDLKKLESDLMEVRGSLMDKEMELQILRSAMEKKVETANTEAMEAELKRVKIQCEQWRKAAETAASILNNDEERTDSIETSKMLKKFGVLLKKNHK | failed
AIAEALWTNKIEDPLSLMSFTVPPLRLLSAAMWQVTERRQVKHYGMLEEFVSLVTETIPELLNQHQRAQLILGLRARHLLELCRGKHQGSLKEIQPHLKRLCRPRVNKEFADEDMEESEACFLDLVRTLISNPKEKEHYFQNIFPEEYGPKFDKNLHALMEDFLLKLDRMVSVPDLSETVSWLRTCPSLLDDCIDSVSVPKDMKSLLEHHTAKGNLQDSEGNNCTFSSQSLPPLVQVVISSDHTESGEPSDLNGQDNDDEQASKTSSDGWTIKKIKLKTETEEEDNDQNWPITEAKSTGTRDGYDDGCLGEEPNQTQS | failed
MSFESNQLMPIAALRGGPGTPAADVLTAFALRRKAEGIDVVGVIVPPEDAGSGHQGHGHGEGHGGGHEGCECRSELIDIATGDRYAMHQDLGSGSQACNLNSSSLALAAGAVERAVARKPALVVLSRFGGQEAVRGGLMSAFQAAIAAGVPVACVVTPKAEDVWNDFAQGLSVSLPPEADALEAWWRDHARGRNAALEHHHHHH | failed
MYYKQLDSLVFTDGESIAKARLASMTDMWFSSDLHLGHKFVASMRGFDDPDEHDEVILSNFENTIGPDDVLWILGDLSSGAHRAEERALGLIAERLGGVVKHLVPGNHDSCHPMYRHAYKRQRRFLEVFDSVQAFQRMKWDDEDVYLSHFPRPGQDHPGMESRFDDLRLRVPLLIHGHLHSQFPMTGPGQVDVGVEAWGLKPAPRELVQLKLWESLSEKILEHHHHHH | failed
MDRECERDPYYDDLKVAKRAIEQMEMVAMMEGIPKFCPCGGSIVDTRKDEKRYYQCEKFKDDRTDLMHIRKLWDKAMEEEVSSLRESVDYNRKKVLSHEYLIEEMQKELKAHRAEIVNVSKVVFRNPMAPKK | failed
MDPAMSFAEIFTVVVPVFLVIAVGYGTGRRALFDAGGAQALRELTMQLALPAALLLSIWQTPRRVLVEQLPLVGLLAFGLLGVYAVLLGVLRLAGRRPLRRAALFALACVQPQYAFMGTSILGGLFGTAQAAVPIAVAGILVNVVLDPVVLILLGMPEHPASRTAATAAAATSAVRRPALVTVGGGAPGESVEAAAPVAAGDASPEHRPSVLRTVGHALREPFCWGPVLGLILSVGGVGVPKVAGTSLTLLAGAASAAALLYVGVSVSRIGRPKLTPAVWAIALTSVVVLPLLVYGAGLAMASAADAAQAALIVAFPVSPVPLMFAARHGSKADVRTIGSAVVLSLLLSFVTLPLLIELIG | not failed
